From paper PMC2173431 (The Journal of Cell Biology, 2003) come the findings set out here.

Like-named read-outs stand apart in the source and are kept apart here.

Experiment [1] concerns the target T1, GST-AIP (human, UniProt O00170 1-330).
T1 sequence (looked up): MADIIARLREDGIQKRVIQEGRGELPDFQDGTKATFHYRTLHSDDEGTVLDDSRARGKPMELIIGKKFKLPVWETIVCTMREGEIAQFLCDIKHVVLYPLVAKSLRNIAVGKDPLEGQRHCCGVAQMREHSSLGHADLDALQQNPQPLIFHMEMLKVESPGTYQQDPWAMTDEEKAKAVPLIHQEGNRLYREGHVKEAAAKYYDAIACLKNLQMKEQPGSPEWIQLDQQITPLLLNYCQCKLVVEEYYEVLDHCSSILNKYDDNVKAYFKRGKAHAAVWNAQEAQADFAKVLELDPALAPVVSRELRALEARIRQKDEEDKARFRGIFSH
Nature of the experiment: pull-down.

In experiment [2] the target is T1, GST-AIP. Nature of the experiment: pull-down. The source holds these as a separate data set.

B1: MBP-cT20 (domain or fragment, human, UniProt Q15388 25-145, looked up)
chain: DRKRRSDPNFKNRLRERRKKQKLAKERAGLSKLPDLKDAEAVQKFFLEEIQLGEELLAQGEYEKGVDHLTNAIAVCGQPQQLLQVLQQTLPPPVFQMLLTKLPTISQRIVSAQSLAEDDVE
In the case of B1, in experiment [1], the binding result is “binds”.

As to MLFNLRILLNNAAFRNGHNFMVRNFRCGQPLQ [synthetic presequence peptide of human pOTC], the binding result in experiment [2] is on record as “binds”.

Consider QRIVSAQSLAEDDVE [Tom20C[131–145] peptide], for which, in experiment [2], the binding result was “binds”.
